From patent US20140161804A1 (AbbVie / Abbott, published 2014)
Positions count from the first letter of the chain named.

B1: AE11-7 (antibody, V domains shown)
VH: EVQLVQSGAEVKKPGASVKVSCKTSGYSLTQYPIHWVRQAPGQRPEWMGWISPGNGNTKLSPKFQGRVTLSRDASAGTVFMDLSGLTSDDTAVYFCTSVDLGDHWGQGTLVTVSS
VL: DIVMTQSPEFQSVTPKEKVTITCRASQSIGSSLHWYQQKPDQSPKLLINYASQSFSGVPSRFSGGGSGTDFTLTINSLEAEDAATYYCHQSSNLPITFGQGTRLEIK
notes: Fully human anti-TNF antibody isolated by in vitro display; also called AE11-7 VH; AE11-7 VL
B2: AE11-1 (antibody, V domains shown)
VH: EVQLVQSGAEVKKPGASVKVSCKASGYTFTSYDVNWVRQATGQGLEWMGWMNPNSGNTGYAQKFQGRVTITADESTSTAYMELSSLRSEDTAVYYCAIFDSDYMDVWGKGTLVTVSS
VL: SYELTQPPSVSLSPGQTARITCSGDALPKQYAYWYQQKPGQAPVLVIYKDTERPSGIPERFSGSSSGTTVTLTISGAQAEDEADYYCQSADSSGTSWVFGGGTKLTVL
notes: Fully human anti-TNF antibody isolated by in vitro display; also called AE11-1 VH; AE11-1 VL
B3: AE11-5 (antibody, V domains shown)
VH: EVQLVQSGAEVKKPGSSAKVSCKASGGTFSSYAISWVRQAPGQGLEWMGGIIPILGTANYAQKFLGRVTITADESTSTVYMELSSLRSEDTAVYYCARGLYYDPTRADYWGQGTLVTVSS
VL: DIVMTQSPDFHSVTPKEKVTITCRASQSIGSSLHWYQQKPDQSPKLLIRHASQSISGVPSRFSGSGSGTDFTLTIHSLEAEDAATYYCHQSSSSPPPTFGQGTQVEIK
notes: Fully human anti-TNF antibody isolated by in vitro display; also called AE11-5 VH; AE11-5 VL
B4: TNF-JK1 (antibody, V domains shown)
VH: EVQLVESGGGLVQPGGSLRLSCATSGFTFNNYWMSWVRQAPGKGLEWVANINHDESEKYYVDSAKGRFTISRDNAEKSLFLQMNSLRAEDTAVYYCARIIRGRVGFDYYNYAMDVWGQGTLVTVSS
VL: DIRLTQSPSPLSASVGDRVTITCRASQSIGNYLNWYQHKPGKAPKLLIYAASSLQSGVPSRFSGTGSGTDFTLTISSLQPEDFATYYCQESYSLIFAGGTKVEIK
notes: Fully human anti-TNF antibody isolated by in vitro display; also called TNF-JK1 VH; TNF-JK1 VL
B5: hMAK199-1-h10F7-M10.8 DVD-Ig (bispecific antibody, human IgG1, kappa, L234A L235A)
heavy: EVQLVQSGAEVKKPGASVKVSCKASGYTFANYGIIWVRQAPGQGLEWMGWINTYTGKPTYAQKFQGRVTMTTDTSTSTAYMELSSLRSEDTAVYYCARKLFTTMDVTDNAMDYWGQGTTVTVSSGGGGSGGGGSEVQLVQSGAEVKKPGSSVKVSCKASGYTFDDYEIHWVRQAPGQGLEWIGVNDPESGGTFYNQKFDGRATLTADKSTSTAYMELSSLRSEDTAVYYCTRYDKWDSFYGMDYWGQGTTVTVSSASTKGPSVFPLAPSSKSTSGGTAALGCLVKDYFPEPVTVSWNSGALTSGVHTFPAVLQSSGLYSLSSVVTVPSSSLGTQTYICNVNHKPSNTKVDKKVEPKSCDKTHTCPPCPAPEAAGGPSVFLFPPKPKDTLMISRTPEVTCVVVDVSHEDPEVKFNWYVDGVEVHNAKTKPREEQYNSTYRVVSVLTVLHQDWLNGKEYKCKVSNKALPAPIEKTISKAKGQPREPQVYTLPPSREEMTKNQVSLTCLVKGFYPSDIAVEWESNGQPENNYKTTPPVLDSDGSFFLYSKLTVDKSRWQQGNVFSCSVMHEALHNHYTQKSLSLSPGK
light: DIQMTQSPSSLSASVGDRVTITCRASQDISQYLNWYQQKPGKAPKLLIYYTSRLQSGVPSRFSGSGSGTDFTLTISSLQPEDFATYFCQQGNTWPPTFGQGTKLEIKRGGSGGGGSGDIQMTQSPSSLSASVGDRVTITCSASSGSISYIDWFQQKPGKAPKRLIYATFELASGVPSRFSGSGSGTDFTLTISSLQPEDFATYYCHQLGSYPDTFGQGTKLEIKRTVAAPSVFIFPPSDEQLKSGTASVVCLLNNFYPREAKVQWKVDNALQSGNSQESVTEQDSKDSTYSLSSTLTLSKADYEKHKVYACEVTHQGLSSPVTKSFNRGEC
notes: DVD-Ig; IgG1 234,235 mut, kappa; GS10 linkers; also called HMAK199-1-GS10-H10F7-M10 DVD
B6: hMAK199-1-h10F7-M11.8 DVD-Ig wt (bispecific antibody, human IgG1, kappa)
heavy: not shown
light: B5 light with S141R, S146I, E170D, F188Y, H206R, L208V, D213E
notes: DVD-Ig; wild-type IgG1, kappa; GS10 linkers; Uncertain; also called HMAK199-1-h10F7-M11.8 HC DVD wt
B7: hMAK199-1-h10F7-M11.8 DVD-Ig (bispecific antibody, human IgG1, kappa, L234A L235A)
heavy: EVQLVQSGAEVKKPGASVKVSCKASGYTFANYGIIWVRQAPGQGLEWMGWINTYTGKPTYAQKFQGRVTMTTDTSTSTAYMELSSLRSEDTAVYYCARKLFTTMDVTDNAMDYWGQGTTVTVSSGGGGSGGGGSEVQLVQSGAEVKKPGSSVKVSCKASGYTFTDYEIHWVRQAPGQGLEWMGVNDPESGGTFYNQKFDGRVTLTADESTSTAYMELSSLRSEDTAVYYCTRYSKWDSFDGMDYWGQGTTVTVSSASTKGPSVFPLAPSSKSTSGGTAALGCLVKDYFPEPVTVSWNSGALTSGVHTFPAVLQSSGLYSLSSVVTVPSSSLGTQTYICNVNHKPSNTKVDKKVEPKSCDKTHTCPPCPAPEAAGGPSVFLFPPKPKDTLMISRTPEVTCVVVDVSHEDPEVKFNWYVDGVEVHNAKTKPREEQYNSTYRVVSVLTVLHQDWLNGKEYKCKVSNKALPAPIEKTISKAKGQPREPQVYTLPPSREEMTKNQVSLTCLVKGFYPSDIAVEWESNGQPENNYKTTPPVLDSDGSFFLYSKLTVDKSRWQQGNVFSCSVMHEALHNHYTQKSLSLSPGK
light: B5 light with S141R, S146I, E170D, F188Y, H206R, L208V, D213E
notes: DVD-Ig; IgG1 234,235 mut, kappa; GS10 linkers; also called HMAK199-1-GS10-H10F7-M11 DVD
B8: hMAK199-1-h10F7-M11.8 QL DVD-Ig (bispecific antibody, human IgG1, kappa, L234A L235A)
heavy: EVQLVQSGAEVKKPGASVKVSCKASGYTFANYGIIWVRQAPGQGLEWMGWINTYTGKPTYAQKFQGRVTMTTDTSTSTAYMELSSLRSEDTAVYYCARKLFTTMDVTDNAMDYWGQGTTVTVSSGGGGSGGGGSEVQLVQSGAEVKKPGSSVKVSCKASGYTFTDYEIHWVRQAPGQGLEWMGVNDPESGGTFYNQKFDGRVTLTADESTSTAYMELSSLRSEDTAVYYCTRYSKWDSFDGMDYWGQGTTVTVSSASTKGPSVFPLAPSSKSTSGGTAALGCLVKDYFPEPVTVSWNSGALTSGVHTFPAVLQSSGLYSLSSVVTVPSSSLGTQTYICNVNHKPSNTKVDKKVEPKSCDKTHTCPPCPAPEAAGGPSVFLFPPKPKDQLMISRTPEVTCVVVDVSHEDPEVKFNWYVDGVEVHNAKTKPREEQYNSTYRVVSVLTVLHQDWLNGKEYKCKVSNKALPAPIEKTISKAKGQPREPQVYTLPPSREEMTKNQVSLTCLVKGFYPSDIAVEWESNGQPENNYKTTPPVLDSDGSFFLYSKLTVDKSRWQQGNVFSCSVLHEALHNHYTQKSLSLSPGK
light: B5 light with S141R, S146I, E170D, F188Y, H206R, L208V, D213E
notes: DVD-Ig; IgG1 (234,235) mut with QL mutations, kappa; GS10 linkers

What was measured:
Human TNF [1] = biological target: T1, Human TNF (human, UniProt P01375 77-233); assay: in vitro display selection on recombinant human TNF
T1 construct: Biotinylated in the ELISA; purified recombinant protein in SPR; also called h TNF; huTNF
T1 sequence (P01375 77-233 limits assumed): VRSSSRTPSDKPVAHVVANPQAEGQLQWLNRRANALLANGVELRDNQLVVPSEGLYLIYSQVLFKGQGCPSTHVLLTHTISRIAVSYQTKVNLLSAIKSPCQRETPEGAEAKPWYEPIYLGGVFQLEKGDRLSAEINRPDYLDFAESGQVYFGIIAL

Human TNF [2] = biological target: T1, Human TNF; assay: ELISA, captured DVD-Ig, biotin-human TNF titrated
Description: The following protocol is used to characterize the binding of TNF/IL-17 DVD-Ig proteins to human TNF and IL-17 by enzyme-linked immunosorbent assay (ELISA). An ELISA plate was coated with 50 μl per well of goat anti mouse IgG-Fc at 2 μg/ml, overnight at 4° C. The plate was washed 3 times with PBS/Tween. 50 μl Mab diluted to 1 μg/ml in PBS/0.1% BSA was added to appropriate wells and incubated for 1 hour at room temperature (RT). The plate was washed 3 times with PBS/Tween. 50 μl of serial diluted biotin-human TNF or IL-17 was added to appropriate wells and incubated for 1 hour at RT. The plate was washed 3 times with PBS/Tween. 50 μl of streptavidin-HRP diluted 1:10,000 in PBS/0.1% BSA was added to appropriate wells and incubated for 1 hour at RT. The plate was washed 3 times with PBS/Tween. 50 μl of TMB was added to appropriate wells and the reaction allowed to proceed for 1 minute. The reaction was stopped with 50 μl/well 2N H₂SO₄ and the absorbance read at 450 nm.

Human TNF [3] = biological target: T1, Human TNF; assay: cell-based or functional assay
Human IL-17A [4] = biological target: T2, Human IL-17A (human, UniProt Q16552 20-155, limits assumed); assay: ELISA, captured DVD-Ig, biotin-human IL-17 titrated
T2 construct: Biotinylated in the ELISAs; purified recombinant protein in SPR; also called hIL17A; hIL-17
T2 sequence (Q16552 20-155 limits assumed): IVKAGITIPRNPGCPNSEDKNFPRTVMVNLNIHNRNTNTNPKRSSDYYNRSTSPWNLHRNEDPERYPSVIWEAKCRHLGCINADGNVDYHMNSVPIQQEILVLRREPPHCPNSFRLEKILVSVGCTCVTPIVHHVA
How it was run: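 Plate coated with goat anti-mouse IgG-Fc, then antibody captured at 1 μg/ml; serially diluted biotinylated human TNF or IL-17 added 1 h at RT. Bound ligand detected with streptavidin-HRP and TMB, absorbance at 450 nm.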

Human IL-17A [5] = biological target: T2, Human IL-17A; assay: SPR (Biacore T200), DVD-Ig captured by anti-human IgG Fc, antigen in solution
Description: (§1) The binding of antibodies to purified recombinant IL-17 and TNFα proteins were determined by surface plasmon resonance-based measurements with a Biacore® T200 instrument (GE Healthcare) using running HBS-EP (10 mM HEPES [pH 7.4], 150 mM NaCl, 3 mM EDTA, and 0.005% surfactant P20) containing 0.1 mg/ml BSA at 25° C. All chemicals were obtained from Biacore® AB (GE Healthcare) or otherwise from a different source as described in the text. Approximately 5000 RU of goat anti-human IgG (Fcγ) fragment specific polyclonal antibody (Pierce Biotechnology Inc, Rockford, Ill.) diluted in 10 mM sodium acetate (pH 4.5) was directly immobilized across a CM5 research grade biosensor chip using a standard amine coupling kit according to manufacturer's instructions and procedures at 25 ug/ml. Unreacted moieties on the biosensor surface were blocked with ethanolamine. Modified carboxymethyl dextran surface in flowcell 2, 3 and 4 were used as a reaction surface. Modified carboxymethyl dextran with goat IgG in flow cell 1 was used as the reference surface. For kinetic analysis, rate equations derived from the 1:1 Langmuir binding model were fitted simultaneously to association and dissociation phases of all six injections (using global fit analysis with local float for Rmax) with the use of Biacore T200 Evaluation software v.1.0. Purified antibodies were diluted in HEPES-buffered saline for capture across goat anti-human IgG specific reaction surfaces. Antibodies to be captured as ligand (1-5 μg/ml) were injected over reaction matrices at a flow rate of 50 μl/minute. Association phase was monitored for 5 minutes, while dissociation phase was monitored for 10-60 minutes to accommodate for slower off-rates. The association and dissociation rate constants, ka (unit M-1 s-1) and kd (unit s-1) were determined under a continuous flow rate of 50 μl/minute. Rate constants were derived by making kinetic binding measurements at six different antigen concentrations ranging from 0.78 nM to 100 nM, depending on the species of IL-17 or TNFα tested. The association ka, dissociation rate kd and equilibrium dissociation constant KD were calculated with the use of the same Biacore T200 Evaluation software v.1.0.

Rhesus TNFa = biological target: T3, Rhesus TNFa (rhesus, UniProt P48094 77-233); assay: as above
T3 construct: also called Rhesus TNF-alpha
T3 sequence (P48094 77-233 limits assumed): as the sequence (P01375 77-233 limits assumed) above, with R44T, T72N, R138L counted along it
Description: as §1

Cynomolgus monkey IL-17A = biological target: T4, Cynomolgus monkey IL-17A (cynomolgus monkey, UniProt A0A2K5TTB0 24-155); assay: as above
T4 construct: also called Cyno IL-17AA; Cyno IL17AA
T4 sequence (A0A2K5TTB0 entry or part of it): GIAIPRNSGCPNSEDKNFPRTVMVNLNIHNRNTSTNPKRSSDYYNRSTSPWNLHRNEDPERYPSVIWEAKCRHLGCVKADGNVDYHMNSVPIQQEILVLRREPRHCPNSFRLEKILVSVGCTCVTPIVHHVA
Description: as §1

Human TNF [6] = biological target: T1, Human TNF; assay: as above
Description: as §1

Binder | binding result (Human TNF [1]) | EC50 (Human TNF [2]) | Potency IC50 (nM), L929 bioassay, human TNF (Human TNF [3]) | EC50 (Human IL-17A [4]) | Kd (Human IL-17A [5]) | koff (Human IL-17A [5]) | kon (Human IL-17A [5]) | further results
B1 | binds |  |  |  |  |  |  | 
B2 | binds |  |  |  |  |  |  | 
B3 | binds |  |  |  |  |  |  | 
B4 | binds |  |  |  |  |  |  | 
B5 |  | 0.22 nM | 0.037 nM | 0.081 nM |  |  |  | 
B6 |  | 0.095 nM | 0.033 nM | 0.088 nM | 0.0257 nM | 7.9e-06 s⁻¹ | 307000 M⁻¹ s⁻¹ | Kd (Rhesus TNFa): 0.0137 nM; koff (Rhesus TNFa): 3.03e-05 s⁻¹; kon (Rhesus TNFa): 2.2e+06 M⁻¹ s⁻¹; Kd (Cynomolgus monkey IL-17A): 0.00444 nM; koff (Cynomolgus monkey IL-17A): 1.18e-06 s⁻¹; kon (Cynomolgus monkey IL-17A): 267000 M⁻¹ s⁻¹; Kd (Human TNF [6]): 0.00561 nM; koff (Human TNF [6]): 2.4e-05 s⁻¹; kon (Human TNF [6]): 4.28e+06 M⁻¹ s⁻¹
B7 |  | 0.22 nM | 0.031 nM | 0.078 nM | 0.0337 nM | 1.11e-05 s⁻¹ | 329000 M⁻¹ s⁻¹ | Kd (Rhesus TNFa): 0.0108 nM; koff (Rhesus TNFa): 2.39e-05 s⁻¹; kon (Rhesus TNFa): 2.21e+06 M⁻¹ s⁻¹; Kd (Cynomolgus monkey IL-17A): 0.00722 nM; koff (Cynomolgus monkey IL-17A): 2.15e-06 s⁻¹; kon (Cynomolgus monkey IL-17A): 299000 M⁻¹ s⁻¹; Kd (Human TNF [6]): 0.0055 nM; koff (Human TNF [6]): 2.37e-05 s⁻¹; kon (Human TNF [6]): 4.31e+06 M⁻¹ s⁻¹
B8 |  | 0.119 nM | 0.027 nM | 0.142 nM | < 0.00452 nM | < 1e-06 s⁻¹ | 221000 M⁻¹ s⁻¹ | 
